This note sets out measurements from patent publication US20240293499A1 (SUNNYBROOK RESEARCH INSTITUTE, published 2024).

Usually Kd stands for a measure of binding affinity in units of concentration. The low end stands for a tighter complex, the high end for a looser complex.

Assay [1] addresses T1, murine VISTA (mVISTA), recombinant; form not stated (mouse, UniProt Q9D659 33-191, limits assumed).
T1 construct: The SPR method names only hVISTA-Fc as analyte for the nanobodies; also called mouse VISTA
T1 sequence (looked up): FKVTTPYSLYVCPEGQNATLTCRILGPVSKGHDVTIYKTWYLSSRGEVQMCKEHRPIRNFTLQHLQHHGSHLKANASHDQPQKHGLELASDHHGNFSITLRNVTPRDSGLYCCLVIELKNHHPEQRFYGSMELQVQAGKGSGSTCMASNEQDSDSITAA
As to the kind of experiment: SPR single-cycle kinetics (FIG. 8).

In assay [2] the target is T2, human VISTA on primary human immune cells (CD14+CD16- classical monocytes of PBMCs) (human, UniProt Q9H7M9 33-311).
T2 construct: whole, on cells; Native protein on donor cells; also called hVISTA
T2 sequence (looked up): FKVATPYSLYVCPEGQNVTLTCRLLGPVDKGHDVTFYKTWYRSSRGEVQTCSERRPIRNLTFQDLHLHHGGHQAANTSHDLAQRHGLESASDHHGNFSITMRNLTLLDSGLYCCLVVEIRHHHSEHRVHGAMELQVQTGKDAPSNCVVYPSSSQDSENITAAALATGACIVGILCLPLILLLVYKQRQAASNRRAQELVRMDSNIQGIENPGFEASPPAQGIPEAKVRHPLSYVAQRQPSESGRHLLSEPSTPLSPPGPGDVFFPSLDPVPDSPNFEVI
Kind of assay: flow cytometry on human PBMC, gate CD14+CD16- monocytes, ΔMFI against control, 5 donors. How it is done:
PBMCs had their Fc receptors blocked with Human TruStain FcX (422301; BioLegend) then incubated with 2.5 μg of mAb, mouse IgG1 (401408; BioLegend), or rat IgG2a (400565; BioLegend) or 15 μg Nb for 1 hour at 4° C. After washing with PBS, the PBMCs were incubated with secondary antibodies (1 μL; FITC anti-mouse IgG1, FITC anti-HA, or FITC anti-rat IgG2a; 406605, 901507, or MRG2a-83; BioLegend) or control FITC anti-VISTA antibodies (clone B7H5DS8; 11-1088-42; eBioscience) for 40 minutes at 4° C. A staining cocktail consisting of PE/Cy5 anti-CD11b (101210; BioLegend), APC/Cy7 anti-CD14 (325620; BioLegend), Alexa Flour 700 anti-CD16 (302026; BioLegend), PE/Cy7 anti-CD4 (317414; BioLegend), and Alexa Flour 647 anti-CD8 (301022; BioLegend) was then added to the PBMCs and incubated for 20 minutes at 4° C. Finally, the PBMCs were washed and resuspended in 3 μM DAPI (D1306; Thermo Fisher Scientific) and cytometric profiles recorded using a BD LSR II flow cytometer (BD) maintained by The Centre for Flow Cytometry & Scanning Microscopy (CCSM) at Sunnybrook Research Institute (SRI; Sunnybrook Health Sciences Centre, Toronto, ON, Canada). The same protocol was performed on murine splenocytes to measure the binding of rat anti-hmVISTA mAbs to murine immune cells.

Assay [3] deals with T3, hVISTA-Fc (produced in house) (human, UniProt Q9H7M9 33-194, limits assumed).
T3 construct: Analyte in the SPR of the nanobodies; not shown: Fc
T3 sequence (looked up): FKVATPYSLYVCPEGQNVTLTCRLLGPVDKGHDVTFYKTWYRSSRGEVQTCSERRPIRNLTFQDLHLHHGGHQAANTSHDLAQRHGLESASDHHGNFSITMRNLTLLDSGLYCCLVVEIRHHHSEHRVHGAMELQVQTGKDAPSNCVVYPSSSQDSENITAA
As to the kind of experiment: SPR (BIAcore T200), single-cycle kinetics, Nb captured on anti-His chip, hVISTA-Fc injected at 1.9, 3.8, 7.5, 15, 30 nM, 1:1 fit. The method, then: Binding kinetics of mAbs and Nbs to hVISTA and mVISTA were obtained by surface plasmon resonance (SPR) using a BIAcore T200 (Cytiva) and HBS running buffer (20 mM of HEPES pH 7.4, 150 mM NaCl, 0.005% Tween-20, 3.4 mM EDTA). Briefly, anti-histidine antibodies were immobilized on a CM5 chip (29149604; Cytiva) using the His capture kit (28995056; Cytiva) following manufacture's protocol. For mAbs, VISTA was captured by flowing […] of hVISTA-COMP-his or mVISTA-COMP-his at a flow rate of 30 μL/min. Sensorgrams were collected using single-cycle kinetics covering five mAb concentrations (1:2 serial dilutions). For Nbs, solutions of each nanobody ([…]) were flown over an anti-histidine-coated chip. Five concentrations (1:2 serial dilutions) of hVISTA-Fc (produced in house) were then injected at a flow rate of 30 μL/min. KD, Kₒₙ, and Koff were calculated by analyzing the sensorgrams with a 1:1 Langmuir binding model²³ after subtracting reference sensorgrams.
On the technique in general: In SPR one partner is held on a chip, and binding of the other changes the refractive index at the surface.

B1: anti-hVISTA nanobody hVISTANb7 (VHH)
VHH: QVQLQESGGGLVYPGGSLRLSCTASGFAFTNAYMNWVRQAPGKGAEWVSGITRDSNRTSYADSVKGRFTISRDNAKNTLYLQMDSLKSDDTALYYCNAEPSGWWLDDDYWGQGTQVTVSS
notes: Llama nanobody made in E. coli WK6; not shown: HA tag and His tag (pMECS vector; purified on a His-Trap column, detected with anti-HA)
With B1, the binding result in assay [1] is reported as “no binding”; in assay [2], “binds”. Besides, in assay [3], the Kd was determined as 7.5 nM.
